Results as given in the Immune Epitope Database (IEDB).
pKd: −log10 of the molar value. One block for each sequence: values may come before it.

What was measured:
Assay in all cases: IEDB peptide-MHC binding, purified MHC/competitive/radioactivity; filed as Kd, often an IC50 or EC50 that approximates it; ≥ and ≤ were set here for values at or beyond the usual limits of such assays
HLA-A*11:01 = target: HLA-A*11:01
HLA-A*33:01 = target: HLA-A*33:01
HLA-A*68:01 = target: HLA-A*68:01
HLA-A*31:01 = target: HLA-A*31:01
HLA-A*03:01 = target: HLA-A*03:01
[1] = source organism: Mammarenavirus guanaritoense
[2] = source organism: Vaccinia virus WR
[3] = source organism: Dengue virus 3 Martinique/1243/1999
[4] = source organism: Lassa virus Josiah
[5] = source organism: Dengue virus 1 Brazil/97-11/1997
[6] = source organism: Dengue virus 4 Philippines/H241/1956
[7] = source organism: SARS coronavirus Tor2
[8] = source organism: Dengue virus 2 Jamaica/1409/1983
[9] = source organism: Triticum aestivum
[10] = source organism: Lymphocytic choriomeningitis virus (strain Armstrong)
[11] = source organism: Dengue virus 2 Peru/IQT2913/1996
[12] = source organism: Mammarenavirus brazilense

Sequence: TRFWYINHTK
pKd (HLA-A*11:01; [1]): 5.85
pKd (HLA-A*33:01; [1]): ≤ 4.15
pKd (HLA-A*68:01; [1]): 7.03
pKd (HLA-A*31:01; [1]): 7.05
pKd (HLA-A*03:01; [1]): 5.72

Sequence: DSVCACGLFK
pKd (HLA-A*11:01; source organism: Mammarenavirus whitewaterense): 6.88

Sequence: KIEEIEKVEK
pKd (HLA-A*11:01; [2]): 6.15
pKd (HLA-A*33:01; [2]): ≤ 4.33
pKd (HLA-A*68:01; [2]): 6.38
pKd (HLA-A*31:01; [2]): 5.05
pKd (HLA-A*03:01; [2]): 5.82

Sequence: EQNLTDTNFK
pKd (HLA-A*11:01; [2]): 5.90
pKd (HLA-A*33:01; [2]): ≤ 4.22
pKd (HLA-A*68:01; [2]): 6.17
pKd (HLA-A*31:01; [2]): ≤ 4.15
pKd (HLA-A*03:01; [2]): 4.75

Sequence: NLLVQYGAK
pKd (HLA-A*11:01; [2]): 4.90
pKd (HLA-A*33:01; [2]): ≤ 4.65
pKd (HLA-A*68:01; [2]): 5.60
pKd (HLA-A*31:01; [2]): ≤ 4.68
pKd (HLA-A*03:01; [2]): 6.56

Sequence: LLALNDMGK
pKd (HLA-A*03:01; [3]): 6.53

Sequence: FCKSCWFENK
pKd (HLA-A*33:01; [4]): 5.04
pKd (HLA-A*31:01; [4]): 5.61
pKd (HLA-A*03:01; [4]): ≤ 4.70

Sequence: AMSFDGFIR
pKd (HLA-A*11:01; [2]): 6.49
pKd (HLA-A*33:01; [2]): 5.50
pKd (HLA-A*68:01; [2]): 6.05
pKd (HLA-A*31:01; [2]): 7.14
pKd (HLA-A*03:01; [2]): 5.02

Sequence: MIEEVMRSR
pKd (HLA-A*33:01; [5]): 7.04

Sequence: MVSRLLLNR
pKd (HLA-A*11:01; [3]): 7.30
pKd (HLA-A*33:01; [3]): 8.08
pKd (HLA-A*68:01; [3]): 7.89
pKd (HLA-A*31:01; [3]): 8.32

Sequence: RVSTPQGLVK
pKd (HLA-A*11:01; [6]): 7.27
pKd (HLA-A*03:01; [6]): 8.23

Sequence: NFITKEIKNR
pKd (HLA-A*11:01; [2]): ≤ 4.16
pKd (HLA-A*33:01; [2]): 6.77
pKd (HLA-A*68:01; [2]): 6.28
pKd (HLA-A*31:01; [2]): 5.97
pKd (HLA-A*03:01; [2]): ≤ 4.15

Sequence: GAVVKSDNK
pKd (HLA-A*11:01; [2]): 6.11
pKd (HLA-A*33:01; [2]): ≤ 4.11
pKd (HLA-A*68:01; [2]): 4.90
pKd (HLA-A*31:01; [2]): ≤ 4.11
pKd (HLA-A*03:01; [2]): 4.81

Sequence: ITANPVVTK
pKd (HLA-A*11:01; [3]): 7.65
pKd (HLA-A*68:01; [3]): 7.32
pKd (HLA-A*03:01; [3]): 7.74

Sequence: RLVEEFFNR
pKd (HLA-A*11:01; [2]): 7.06
pKd (HLA-A*33:01; [2]): 6.10
pKd (HLA-A*68:01; [2]): 7.53
pKd (HLA-A*31:01; [2]): 8.86
pKd (HLA-A*03:01; [2]): 7.67

Sequence: AQALNTLVK
pKd (HLA-A*11:01; [7]): 7.80
pKd (HLA-A*33:01; [7]): ≤ 4.54
pKd (HLA-A*68:01; [7]): 5.79
pKd (HLA-A*31:01; [7]): 5.44
pKd (HLA-A*03:01; [7]): 6.61

Sequence: NISFKSINK
pKd (HLA-A*11:01; [2]): 7.38
pKd (HLA-A*33:01; [2]): 5.50
pKd (HLA-A*68:01; [2]): 6.92
pKd (HLA-A*31:01; [2]): 5.01
pKd (HLA-A*03:01; [2]): 7.83

Sequence: ALRGLPIRY
pKd (HLA-A*03:01; [8]): 7.28

Sequence: LFTSTNDKIK
pKd (HLA-A*11:01; [2]): 6.04
pKd (HLA-A*33:01; [2]): ≤ 4.26
pKd (HLA-A*68:01; [2]): 6.27
pKd (HLA-A*31:01; [2]): ≤ 4.18
pKd (HLA-A*03:01; [2]): ≤ 4.60

Sequence: LLACTDPSER
pKd (HLA-A*11:01; [2]): ≤ 4.43
pKd (HLA-A*33:01; [2]): 5.62
pKd (HLA-A*68:01; [2]): 6.07
pKd (HLA-A*31:01; [2]): 5.90
pKd (HLA-A*03:01; [2]): ≤ 4.15

pKd (HLA-A*11:01; [9]): 5.32
pKd (HLA-A*33:01; [9]): ≤ 4.15
pKd (HLA-A*68:01; [9]): ≤ 4.33
pKd (HLA-A*31:01; [9]): ≤ 4.63
pKd (HLA-A*03:01; [9]): 4.95
Sequence: QQQQQQQQQK

Sequence: VTIKYSNDNR
pKd (HLA-A*11:01; [2]): 7.27
pKd (HLA-A*33:01; [2]): 5.17
pKd (HLA-A*68:01; [2]): 8.63
pKd (HLA-A*31:01; [2]): 6.40
pKd (HLA-A*03:01; [2]): 4.99

Sequence: TLVVISVIFY
pKd (HLA-A*11:01; [2]): 5.86
pKd (HLA-A*33:01; [2]): ≤ 4.15
pKd (HLA-A*68:01; [2]): 5.06
pKd (HLA-A*31:01; [2]): 4.90
pKd (HLA-A*03:01; [2]): 5.46

Sequence: QFKQDSKYSH
pKd (HLA-A*11:01; [10]): ≤ 4.16
pKd (HLA-A*33:01; [10]): 5.54
pKd (HLA-A*68:01; [10]): ≤ 4.15
pKd (HLA-A*31:01; [10]): 4.89
pKd (HLA-A*03:01; [10]): ≤ 4.15

Sequence: TAMAFHLSTR
pKd (HLA-A*33:01; [6]): 7.78
pKd (HLA-A*68:01; [6]): 8.07
pKd (HLA-A*31:01; [6]): 7.46

Sequence: FLALGFFLR
pKd (HLA-A*33:01; [3]): 7.58
pKd (HLA-A*68:01; [3]): 8.67
pKd (HLA-A*31:01; [3]): 7.37

Sequence: DFKEFASGR
pKd (HLA-A*33:01; [6]): 8.65

Sequence: DMISYGGGWR
pKd (HLA-A*33:01; [6]): 6.30

Sequence: TSEVHWNYK
pKd (HLA-A*11:01; [6]): 7.07

Sequence: VMAFHLTTR
pKd (HLA-A*31:01; [11]): 8.13
pKd (HLA-A*03:01; [11]): 7.29

Sequence: CLFDRYFKY
pKd (HLA-A*11:01; [7]): 9.23
pKd (HLA-A*33:01; [7]): 5.81
pKd (HLA-A*68:01; [7]): 6.86
pKd (HLA-A*31:01; [7]): 6.67
pKd (HLA-A*03:01; [7]): 8.84

Sequence: YLGVNNLPY
pKd (HLA-A*11:01; [2]): 5.83
pKd (HLA-A*33:01; [2]): ≤ 4.11
pKd (HLA-A*68:01; [2]): ≤ 4.28
pKd (HLA-A*31:01; [2]): ≤ 4.11
pKd (HLA-A*03:01; [2]): 5.89

Sequence: LLPSTDVNK
pKd (HLA-A*11:01; [2]): 5.26
pKd (HLA-A*33:01; [2]): ≤ 4.11
pKd (HLA-A*68:01; [2]): 5.16
pKd (HLA-A*31:01; [2]): 4.76
pKd (HLA-A*03:01; [2]): 5.30

Sequence: AMLFLISGK
pKd (HLA-A*11:01; [3]): 6.68
pKd (HLA-A*03:01; [3]): 6.73

Sequence: MAVEVGSIR
pKd (HLA-A*11:01; [2]): 7.40
pKd (HLA-A*33:01; [2]): 6.61
pKd (HLA-A*68:01; [2]): 8.87
pKd (HLA-A*31:01; [2]): 6.55
pKd (HLA-A*03:01; [2]): ≤ 4.11

Sequence: LFYPSMFTLR
pKd (HLA-A*11:01; [2]): 5.13
pKd (HLA-A*33:01; [2]): 7.54
pKd (HLA-A*68:01; [2]): 8.58
pKd (HLA-A*31:01; [2]): 8.88
pKd (HLA-A*03:01; [2]): 5.80

Sequence: LMKSLGGGR
pKd (HLA-A*31:01; [5]): ≤ 4.24

Sequence: NYILCYRKPH
pKd (HLA-A*11:01; [12]): ≤ 4.16
pKd (HLA-A*33:01; [12]): 5.66
pKd (HLA-A*68:01; [12]): ≤ 4.61
pKd (HLA-A*31:01; [12]): 4.94
pKd (HLA-A*03:01; [12]): 5.27

Sequence: LFMEMFFDY
pKd (HLA-A*11:01; [2]): ≤ 4.23
pKd (HLA-A*33:01; [2]): ≤ 4.25
pKd (HLA-A*68:01; [2]): ≤ 4.15
pKd (HLA-A*31:01; [2]): 4.89
pKd (HLA-A*03:01; [2]): ≤ 4.42

Sequence: RMLNILNGR
pKd (HLA-A*31:01; [6]): 8.94

Sequence: AANEMGLIEK
pKd (HLA-A*11:01; [6]): 6.55

Sequence: FTDPSSVAAR
pKd (HLA-A*68:01; [6]): 7.17

Sequence: YLALIATFK
pKd (HLA-A*68:01; [3]): 7.50
pKd (HLA-A*03:01; [3]): 8.33

Sequence: DFTLFIKTGH
pKd (HLA-A*11:01; [12]): ≤ 4.23
pKd (HLA-A*33:01; [12]): 6.88
pKd (HLA-A*68:01; [12]): 5.61
pKd (HLA-A*31:01; [12]): 5.34

Sequence: KLGEFGRAK
pKd (HLA-A*03:01; [6]): 8.76

Sequence: NYLDYMTSMK
pKd (HLA-A*33:01; [5]): 6.76

Sequence: SIFAGHLKCR
pKd (HLA-A*33:01; [3]): 6.94

Sequence: IGKMFEATAR
pKd (HLA-A*33:01; [5]): 6.20

Sequence: ILARWSSFKK
pKd (HLA-A*03:01; [5]): 8.86

Sequence: ILKRWGTIKK
pKd (HLA-A*03:01; [8]): 7.32

Sequence: LISYGGGWK
pKd (HLA-A*03:01; [8]): 6.47
